T1: human CD79b protein on DoHH2 and WSU-DLCL2 cells (human, UniProt P40259 29-229)
T1 sequence (looked up): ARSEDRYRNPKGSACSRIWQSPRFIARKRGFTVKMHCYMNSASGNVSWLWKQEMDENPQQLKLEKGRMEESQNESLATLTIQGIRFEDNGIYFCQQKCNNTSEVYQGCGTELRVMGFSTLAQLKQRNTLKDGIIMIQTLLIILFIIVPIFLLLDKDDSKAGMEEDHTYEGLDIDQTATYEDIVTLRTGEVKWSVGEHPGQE

T2: human CD79b protein (human, UniProt P40259 29-159, limits assumed)
T2 construct: Recombinant protein used in the Biacore assay
T2 sequence (looked up): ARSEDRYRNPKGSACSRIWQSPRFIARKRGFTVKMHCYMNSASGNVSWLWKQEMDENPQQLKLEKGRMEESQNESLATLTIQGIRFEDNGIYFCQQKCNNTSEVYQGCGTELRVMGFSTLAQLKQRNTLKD

B1: ADC-6 (hAb015-10-cys-D, with a DAR value of about 4) (antibody, human IgG1, kappa, V domains shown)
VH: EVQLVQSGAEVKKPGSSVKVSCKASGSSFSSYGINWVKQAPGQGLEWIGEIFPRSGNTYYNEKFEGRATLTADKSTSTAYMELRSLRSEDTAVYYCAKGDLGDFDYWGQGTTVTVSS
VL: DFVMTQTPLSLPVTPGEPASISCRSSQSIVHSDGNTYFEWYLQKPGQSPKLLIYKVSNRFSGVPDRFSGSGSGTDFTLKISRVEAEDVGVYYCFQGSHVPWTFGGGTKVEIKR
modifications: compound D (exatecan derivative linker-drug, Topo I inhibitor) coupled to cysteines after TCEP reduction; positions not given; mean n=3.46 per antibody (RP-HPLC)
B2: ADC-5 (HAB015-10-cys-D, with a DAR value of about 2) (antibody, human IgG1, kappa, V domains shown)
VH: B1 VH
VL: B1 VL
modifications: compound D (exatecan derivative linker-drug, Topo I inhibitor) coupled to cysteines after TCEP reduction; positions not given; mean n=1.81 per antibody (RP-HPLC)
notes: Antibody-drug conjugate of hAb015-10 with compound D
B3: ADC-3 (hAb015-10-cys-MC-vc-PAB-MMAE) (antibody, human IgG1, kappa, V domains shown)
VH: B1 VH
VL: B1 VL
modifications: MC-vc-PAB-MMAE coupled to cysteines after TCEP reduction; positions not given; mean n=3.09 per antibody (CE-SDS)
B4: hAb015-10 (antibody, human IgG1, kappa, V domains shown)
VH: B1 VH
VL: B1 VL
notes: Humanized form of the mouse hybridoma antibody mAb015; also called humanized anti-CD79b antibody hAb015-10; naked antibody
B5: ADC-7 (hAb015-10-cys-D, with a DAR value of about 6) (antibody, human IgG1, kappa, V domains shown)
VH: B1 VH
VL: B1 VL
modifications: compound D (exatecan derivative linker-drug, Topo I inhibitor) coupled to cysteines after TCEP reduction; positions not given; mean n=5.84 per antibody (RP-HPLC)
B6: ADC-8 (SN8-cys-MC-PAB-MMAE, with a DAR value of about 4) (antibody, human IgG1, kappa, V domains shown)
VH: EVQLVESGGGLVQPGGSLRLSCAASGYTFSSYWIEWVRQAPGKGLEWIGEILPGGGDTNYNEIFKGRATFSADTSKNTAYLQMNSLRAEDTAVYYCTRRVPIRLDYWGQGTLVTVSS
VL: DIQLTQSPSSLSASVGDRVTITCKASQSVDYEGDSFLNWYQQKPGKAPKLLIYAASNLESGVPSRFSGSGSGTDFTLTISSLQPEDFATYYCQQSNEDPLTFGQGTKVEIKR
modifications: MC-VC-PAB-MMAE coupled to cysteines after TCEP reduction; positions not given; mean n=3.59 per antibody (CE-SDS)

Legend:
[1] = target: T1, human CD79b protein on DoHH2 and …; assay: cell-based or functional assay
human CD79b protein = target: T2, human CD79b protein; assay: Biacore affinity assay, 1:1 Langmuir fit; column head prints EC50 (nM)
Experimental: Data fitting was performed with a (1:1) Langmuir model using BIAevaluation version 4.1, GE software to obtain affinity values.

Row | Binder | IC50 of in vitro proliferation inhibition (MTT, 72 h), DoHH2 cells [1] [µg/mL] | IC50 of in vitro proliferation inhibition (MTT, 72 h), WSU-DLCL2 cells [1] [µg/mL] | KD (binding affinity) (human CD79b protein) [nM]
1 | B1 | 0.0033 | 0.0542 | –
2 | B2 | 0.0085 | 0.0683 | –
3 | B3 | 0.0033 | 0.0059 | –
4 | B4 | – | – | 0.38
5 | B5 | 0.002 | 0.0534 | –
6 | B6 | 0.0806 | 0.117 | –

— patent US20250108122A1 (SHANGHAI MABGEN BIOTECH, published 2025)
